Measurements reported in paper PMC10987609, “ATR limits Rad18-mediated PCNA monoubiquitination to preserve replication fork and telomerase-independent telomere stability” (The EMBO Journal, 2024).

Target: T1, ubiquitinated SFB-tagged PCNA purified from HEK293T cells (human | , UniProt P12004 1-261; P0CG48 1-76, ubiquitinated with His-tagged ubiquitin; the paper places Rad18-mediated monoubiquitination at lysine 164)
T1 construct: PCNA, human, full-length cDNA; wild-type ubiquitin (Ub), conjugated to PCNA; the transfected plasmid is probably the N-terminal one; also called ubiquitinated SFB-PCNA; monoubiquitinated PCNA; source: HEK293T stably expressing His-tagged Ub, transfected with SFB-PCNA, treated with HU and ATRi; purified (cobalt resin under denaturing conditions, then streptavidin beads, biotin elution)
Assay: pull-down; GST-UBZ4 on glutathione-Sepharose resin incubated with ubiquitinated SFB-tagged PCNA purified from HEK293T cells; NETN buffer, 4 °C, 1 h
Conditions: both partners purified

binding result: binds
B1: GST-SLX4-UBZ4-WT (domain or fragment, human, UniProt Q8IY92 292-361, looked up)
chain: GLFFCQICQKNLSAMNVTRREQHVNRCLDEAEKTLRPSVPQIPECPICGKPFLTLKSRTSHLKQCAVKME
notes: SLX4, human, fragment with the tandem UBZ4 domains, amino acids 292–361; also called GST-UBZ4; source: E. coli, purified (glutathione-Sepharose, used on beads)
